Results on 6 molecules are retold here after patent publication US20190309059A1 (SHANGHAI PHARMAEXPLORER, published 2019).

Some results are limits rather than exact numbers.

For assay [1], the target named is his-labeled human IL-13 (immunogen A) (human) (UniProt P35225). Nature of the assay: ELISA, biotin-immunogen A; antibody at 0.02 nM.
Assay [2] has as its target his-labeled human IL-13R130Q variant (human) (UniProt P35225). Nature of the assay: ELISA, IL-13R130Q variant; antibody at 0.53 nM. For orientation: An ELISA detects its analyte on a solid surface through an enzyme-linked reagent.
In assay [3] the target is his-labeled human IL-13 (immunogen A) (human) (UniProt P35225). Nature of the assay: ELISA, biotin-immunogen A; antibody at 0.000 nM.
For assay [4], the target named is cynomolgus IL-13 (purchased from sino biological) (cynomolgus) (UniProt Q0PW92). The experiment in a line: ELISA, cynomolgus IL-13; antibody at 0.11 nM.
Assay [5] deals with his-labeled human IL-13R130Q variant (human) (UniProt P35225). Nature of the assay: ELISA, IL-13R130Q variant; antibody at 13.33 nM.
Assay [6] addresses his-labeled human IL-13 (immunogen A) (human) (UniProt P35225). The experiment in a line: ELISA, biotin-immunogen A; antibody at 0.001 nM.
In assay [7] the target is his-labeled human IL-13R130Q variant (human) (UniProt P35225). The experiment in a line: ELISA, IL-13R130Q variant; antibody at 0.021 nM.
Assay [8] has the same target. The experiment in a line: ELISA, IL-13R130Q variant; antibody at 0.11 nM.
The target in assay [9] is cynomolgus IL-13 (purchased from sino biological) (cynomolgus) (UniProt Q0PW92). Nature of the assay: ELISA, cynomolgus IL-13; antibody at 66.7 nM.
For assay [10], the target named is his-labeled human IL-13 (immunogen A) (human) (UniProt P35225). The experiment in a line: ELISA, biotin-immunogen A; antibody at 0.00 nM (as printed, 7th dilution).
Assay [11] addresses his-labeled human IL-13R130Q variant (human) (UniProt P35225). Nature of the assay: ELISA, IL-13R130Q variant; antibody at 2.67 nM.
The target in assay [12] is his-labeled human IL-13 (immunogen A) (human) (UniProt P35225). Nature of the assay: ELISA, biotin-immunogen A; antibody at 0.00 nM (8th dilution).
The target of assay [13] is cynomolgus IL-13 (purchased from sino biological) (cynomolgus) (UniProt Q0PW92). Nature of the assay: ELISA, cynomolgus IL-13; antibody at 13.3 nM.
The target is the same in assay [14]. The experiment in a line: ELISA, cynomolgus IL-13; antibody at 13.33 nM.
Assay [15] addresses his-labeled human IL-13R130Q variant (human) (UniProt P35225). Nature of the assay: ELISA, IL-13R130Q variant; antibody at 0.004 nM.
In assay [16] the target is his-labeled human IL-13 (immunogen A) (human) (UniProt P35225). The experiment in a line: SPR (Biacore), antibody captured by anti-human Fc, immunogen A as analyte. A general note: SPR reads the build-up and loss of mass on a sensor chip optically.
Assay [17] shares this target. The experiment in a line: FACS blocking assay: antibody titrated with biotin-labeled immunogen A (30 ng/mL); blocked partner IL-13Ra1/IL-4Ra on HEK293 clone 4C1; Alexa 488 streptavidin.
The target is the same in assay [18]. Nature of the assay: ELISA: biotin-labeled immunogen A on streptavidin plate, antibody titrated, HRP secondary antibody, OD450.
Assay [19] shares this target. Nature of the assay: SPR (Biacore).
The target is the same in assay [20]. The experiment in a line: FACS blocking assay: antibody titrated with biotin-labeled immunogen A (20 ng/mL); blocked partner IL-13Ra2 on HEK293 clone 1A1; Alexa 488 streptavidin.
Assay [21] has as its target his-labeled human IL-13R130Q variant (human) (UniProt P35225). The experiment in a line: ELISA, IL-13R130Q variant; antibody at 66.67 nM.
Assay [22] addresses T1, mouse IL-13 (purchased from sino biological) (mouse, UniProt P20109 19-131).
T1 chain: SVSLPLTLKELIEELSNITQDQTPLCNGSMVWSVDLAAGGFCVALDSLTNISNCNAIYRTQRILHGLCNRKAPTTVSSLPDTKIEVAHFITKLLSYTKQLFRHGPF
Nature of the assay: ELISA, mouse IL-13; antibody at 2.67 nM.

For assay [23], the target named is T1, mouse IL-13 (purchased from sino …). The experiment in a line: ELISA, mouse IL-13; antibody at 0.11 nM.
Assay [24] addresses his-labeled human IL-13 (immunogen A) (human) (UniProt P35225). The experiment in a line: ELISA, biotin-immunogen A; antibody at 0.021 nM.
Assay [25] addresses T1, mouse IL-13 (purchased from sino …). Nature of the assay: ELISA, mouse IL-13; antibody at 0.000 nM.
The target of assay [26] is cynomolgus IL-13 (purchased from sino biological) (cynomolgus) (UniProt Q0PW92). Nature of the assay: ELISA, cynomolgus IL-13; antibody at 66.67 nM.
The target in assay [27] is T1, mouse IL-13 (purchased from sino …). The experiment in a line: ELISA, mouse IL-13; antibody at 0.001 nM.
The target of assay [28] is his-labeled human IL-13 (immunogen A) (human) (UniProt P35225). The experiment in a line: ELISA, biotin-immunogen A; antibody at 0.004 nM.
Assay [29] has as its target T1, mouse IL-13 (purchased from sino …). The experiment in a line: ELISA, mouse IL-13; antibody at 0.004 nM.
Assay [30] has the same target. The experiment in a line: ELISA, mouse IL-13; antibody at 0.53 nM.
Assay [31] addresses cynomolgus IL-13 (purchased from sino biological) (cynomolgus) (UniProt Q0PW92). The experiment in a line: ELISA: cynomolgus IL-13 on the plate, antibody titrated, HRP secondary antibody, OD450.

Chain of his-labeled human IL-13R130Q variant (human) (P35225 other isoform, or with tags, fused parts or gaps mutant): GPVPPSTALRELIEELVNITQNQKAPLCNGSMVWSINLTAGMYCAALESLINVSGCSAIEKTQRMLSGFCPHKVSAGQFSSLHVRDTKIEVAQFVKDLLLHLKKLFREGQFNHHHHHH
Chain of cynomolgus IL-13 (purchased from sino biological) (cynomolgus) (Q0PW92 entry or part of it): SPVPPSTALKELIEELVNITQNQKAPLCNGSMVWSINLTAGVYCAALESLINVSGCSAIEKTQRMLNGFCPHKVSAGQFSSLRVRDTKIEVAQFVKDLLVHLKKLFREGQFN

As to IgG control (mouse IgG) (antibody), the OD450 nm in assay [1] was 0.07; in assay [2], 0.06; in assay [3] it was 0.05; in assay [4], 0.07; in [5], 0.09; in assay [6] it was 0.05. The OD450 nm in assay [7] turned out to be 0.06; in assay [8], 0.06; in assay [9] it was 0.1; in assay [10], 0.07; in assay [11], 0.06; in assay [12], 0.07. In addition, the OD450 nm came out at 0.1 in [13], 0.21 in assay [14] and 0.07 in [15].

B1: c35E2C3 (mouse-human chimeric IL-13 antibody) (antibody, V domains shown)
VH: EVQLQESGPGLAKPSQTLSLTCSVTGYSITSDYWNWIRKFPGNKLEYMGYISYNGNTYYNPSLKSQISITRDTSKNQLYLQLKSATTEDTATYYCARLAKWTWYFDIWGTGTTVTVSS
VL: DIQMNQSPSSLSASLGDTITITCHASQNINVWLSWYQQKPGSLPKLLIYKASDLHTGVPSRFSGSGSGTGFTLTISSLQPEDIATYYCQQGQSYPYTFGGGTKLEIK
Regarding B1, the OD450 nm in assay [1] came to 0.18; in [2], 2.4; in assay [5], 3.3; in assay [7] it was 0.28; in assay [8], 0.97; in [9] it was 3.8. Moreover, the OD450 nm in [21] was found to be 3.4; in assay [10], 0.07; in assay [11], 3.1; in assay [12], 0.06; in [13], 3.1; in assay [15], 0.13. The Kd – broadly, the concentration at which binding is half-saturated – in assay [16] was 0.863 nM; in assay [19] it was below 90 nM. In addition, in assay [16], the koff (commonly a measure of how fast the partners let go of each other) is 0.00026 s⁻¹. In addition, in [16], the kon (as a rule, a measure of how fast the partners come together) came out at 300000 M⁻¹ s⁻¹. Besides, the IC50 (read off the curve) in assay [17] was determined as 0.5 nM; in assay [20], 0.3 nM. For the same molecule, the EC50 (read off the curve) (commonly the concentration needed to bring the measured effect to its halfway point) in assay [18] was 0.4 nM.

B2: 28A2E11 (lead antibody, mouse hybridoma) (antibody, V domains shown)
VH: EVQLQQSGAELVKPGASVKLSCTASGFNIKDYYMHWVKQRTEQGLEWIGRIDPEDGETKYAPKFHDKATLTADTSSNTAYLQFSSLASEDTAVYYCTRYDYYGPFAYWGQGTLVTVSA
VL: QAVVTQESVLTTSPGETVTLTCRSSTGAVTTSNYANWVQEKPDHLFTGLIGGTNNRAPGVPARFSGSLIGDKAALTITGAQTEDEAIYFCALWYINHFIFGSGTKVTVL
notes: Mouse monoclonal antibody purified from hybridoma supernatant on Protein G
As to B2, the IC50 (read off the curve) in assay [17] is 0.7 nM; in assay [20], 0.6 nM. The OD450 nm in assay [3] stood at 0.05; in [4], 0.35; in assay [22], 0.08; in [23], 0.07; in assay [6], 0.07; in [24], 0.28. Also, the OD450 nm was found to be 0.07 in assay [25]; 1.99 in assay [26]; 0.06 in assay [27]; 0.1 in assay [28]; 0.07 in [29]; 0.07 in [30]. The OD450 nm in assay [14] turned out to be 1.78. Moreover, the EC50 (read off the curve) in assay [18] came to 0.2 nM.

B3: c28A2E11 (mouse-human chimeric IL-13 antibody) (antibody, V domains shown)
VH: EVQLQQSGAELVKPGASVKLSCTASGFNIKDYYMHWVKQRTEQGLEWIGRIDPEDGETKYAPKFHDKATLTADTSSNTAYLQFSSLASEDTAVYYCTRYDYYGPFAYWGQGTLVTVSA
VL: QAVVTQESVLTTSPGETVTLTCRSSTGAVTTSNYANWVQEKPDHLFTGLIGGTNNRAPGVPARFSGSLIGDKAALTITGAQTEDEAIYFCALWYINHFIFGSGTKVTVL
For the molecule B3, the OD450 nm in [1] was found to be 0.25; in assay [9], 3.4; in assay [10], 0.07; in assay [12], 0.06; in assay [13], 2.4. Moreover, the Kd in [16] is 7.98 nM; in assay [19] it was below 90 nM. The molecule further registered a koff in [16] of 0.00438 s⁻¹. This molecule also came in with a kon in [16] of 549000 M⁻¹ s⁻¹. Further, the IC50 (read off the curve) in [17] and in assay [20] was 1 nM in each case. This molecule also displayed an EC50 (read off the curve) in assay [18] of 0.2 nM.

B4: 29D9H8 (lead antibody, mouse hybridoma) (antibody, V domains shown)
VH: QVQLQQSGAELVRPGASVTLSCKASGYTFTDYEMHWVKQTPVHGLEWIGGIDPETGGTASNQKFKGKAILTADKSSSTAYMELRSLTSEDSAVYYCTSGDYFGGGPFAYWGQGTLVTVSA
VL: DIKMTQSPSSMYASLGERVTITCKASQDINSYLSWFQQKPGKSPKTLIYRANRLVDGVPSRFSGSGSGQDYSLTISSLDYEDMGIYYCLQYDEFPYTFGGGTKLEIK
notes: as for B2
Take B4: the concentration giving a half-maximal response (EC50 (read off the curve)) in assay [31] and in [18] was 0.1 nM each time. Besides, the IC50 (read off the curve) worked out at 0.3 nM in assay [17] and 0.2 nM in assay [20]. Moreover, the OD450 nm was 0.06 in assay [3]; 1.24 in [4]; 0.07 in [22]; 0.07 in assay [23]; 0.07 in [6]; 0.34 in [24]. Also, the OD450 nm in assay [25] is 0.07; in assay [26] it was 2.52; in assay [27], 0.07; in assay [28] it was 0.12; in assay [29], 0.07; in assay [30], 0.06. For the same molecule, in assay [14], the OD450 nm was found to be 2.46.

B5: c29D9H8 (mouse-human chimeric IL-13 antibody) (antibody, V domains shown)
VH: QVQLQQSGAELVRPGASVTLSCKASGYTFTDYEMHWVKQTPVHGLEWIGGIDPETGGTASNQKFKGKAILTADKSSSTAYMELRSLTSEDSAVYYCTSGDYFGGGPFAYWGQGTLVTVSA
VL: DIKMTQSPSSMYASLGERVTITCKASQDINSYLSWFQQKPGKSPKTLIYRANRLVDGVPSRFSGSGSGQDYSLTISSLDYEDMGIYYCLQYDEFPYTFGGGTKLEIK
B5 came in with an EC50 (read off the curve) in assay [31] of 0.2 nM. Besides, the OD450 nm came to 2.46 in assay [2]; 2.99 in [5]; 0.4 in assay [7]; 1.23 in assay [8]; 3.6 in assay [9]; 3.06 in assay [21]. Further, the OD450 nm in [11] was 2.92; in assay [13], 3.5; in [15] it was 0.2. In addition, the Kd in assay [16] was 0.0324 nM; in assay [19], below 90 nM. Moreover, the koff in [16] came out at 0.000813 s⁻¹. The molecule further came in with a kon in assay [16] of 2.51e+07 M⁻¹ s⁻¹. The IC50 (read off the curve) in [17] is 0.5 nM; in [20], 0.2 nM.
